We go through five molecules from patent US20220356228A1 (ICAHN SCHOOL OF MEDICINE AT MOUNT SINAI, published 2022).

Some results are limits rather than exact numbers.

For orientation: EC50 means the concentration that produces a half-maximal response. A low value points to greater potency.

Test [1] concerns the target T1, JCV major capsid protein VP1, wild type (John Cunningham virus (JCV), UniProt P03089 1-354). Put plainly: cell-based or functional assay.
Test [2] addresses T1, JCV major capsid protein VP1, wild type. Put plainly: ELISA, plates coated with pseudovirus, purified antibody.
Test [3] deals with T2, JCV VP1 mutant S269F (John Cunningham virus (JCV), UniProt P03089 1-354).
T2 construct: also called VP1 S269F; 269m VP1
Described as above.

Another test addresses T3, JCV VP1 mutant L55F (John Cunningham virus (JCV), UniProt P03089 1-354).
T3 construct: also called VP1 L55F; 55m VP1
The test is described as above.

Test [4] addresses T2, JCV VP1 mutant S269F. Put plainly: cell-based or functional assay.

B1: 2A6 (antibody, V domains shown)
VH: QVQLQQWGAGLLKPSETLSLTCAVYGGSFSGYYWSWIRQPPGKGLEWIGDINHGGSTNYNPSLKSRVIISVDTSKNQFSLKLSSVTAADTALYYCARGWGGQVAHWFDPWGQGTLGTVSS
VL: DIVMTQSPDSLALSLGERATINCKSSQSVLFSSNNQNYLAWYQQKPGQPPKLLIYWASTRESGVPDRFSGSGSGTDFTLTVSSLQAEDVAVYFCQQYYSLPYTFGQGTKLEIK
In the case of B1, the “Neutralization of wild type JCV, EC50 [pM]” value in test [1] turned out to be 2710 pM. Also, in test [2], the “AB conc. (lowest concentration of antibody that gave a clear signal above background)” value is under 200 ng/mL and it took 1.3 µg/mL to reach a half-maximal effect (EC50). For the same molecule, in the test with JCV VP1 mutant S269F [3], the “AB conc. (lowest concentration of antibody that gave a clear signal above background)” value is under 22 ng/mL and the EC50 turned out to be 0.147 µg/mL. For the same molecule, in the test with JCV VP1 mutant L55F, the binding result is “no binding (tested: 2.5 ng/ml to 200 ng/ml)”.

B2: 8A7 (antibody, V domains shown)
VH: QVQLQESGPGLVKPSETLSLTCTVSGGSISSNYWNWIRQPPGKGLEWIGYIYYSGSTNYNPSLKSRVTISVDTSKNQFSLKLSSVTAADTAVYYCARRGFEQQLSYYYYYGLDVWGQGTTVTVSS
VL: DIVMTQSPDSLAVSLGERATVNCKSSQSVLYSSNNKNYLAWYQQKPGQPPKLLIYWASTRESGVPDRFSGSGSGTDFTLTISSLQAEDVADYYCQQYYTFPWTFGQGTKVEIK
Molecule B2 had an EC50 in test [2] of 0.0085 µg/mL.

B3: 1H10 (antibody, V domains shown)
VH: EVQLLESGGGLVQPGGSLRLSCAASGFTLSTYAMSWVRQAPGKGLEWVSAISGTGLSTYYADSLKGRFTISRDISKNTLYLQMSSLKAEDTAVYYCAKGLELFYFYYGMDVWGQGTTVTVSS
VL: EIVLTQSPGTLSLSPGERATLSCRASQSVSSTYLAWYQQKPGQAPRLLIYGTSSRATGIPDRFSGSGSGTDFTLTISRLEPEDLAVYYCQQYGRSLIFGQGTRLEIK
With B3, the “Neutralization of wild type JCV, EC50 [pM]” value in test [1] stood at 155 pM. The “AB conc. (lowest concentration of antibody that gave a clear signal above background)” value was under 22 ng/mL in test [2] and under 7.4 ng/mL with JCV VP1 mutant S269F [3]. Also, the EC50 in test [2] turned out to be 0.0193 µg/mL; in the test with JCV VP1 mutant S269F [3], 0.0185 µg/mL. For the same molecule, the “Neutralization of JCV S269F: EC50 [pM]” value with JCV VP1 mutant S269F [4] was 20.9 pM.

B4: 3D2 (antibody, V domains shown)
VH: QVQLQQWGAGLLKPSETLSLTCAVFGGSFSSYYWSWIRHPPGKGLEWIGDINHSGSTNYNPSLKSRVTLSVDTSKNQFSLKVTSVTAADTAVYYCARWGIAADYGMDVWGQGTTVTVSS
VL: EIVLTQSPGTLSLSPGERATLSCRASQSVSSSYLAWYQQKPGQAPRLLIYGASSRATGIPDRFSDSGSGTDFTLTISRLEPEDFALYYCQQYGTSPWTFGQGTKVEIK
Regarding B4, the “Neutralization of wild type JCV, EC50 [pM]” value in test [1] turned out to be 2250 pM. In test [2], the “AB conc. (lowest concentration of antibody that gave a clear signal above background)” value was under 67 ng/mL and the EC50 amounted to 0.393 µg/mL. In the test with JCV VP1 mutant S269F [3], the “AB conc. (lowest concentration of antibody that gave a clear signal above background)” value was under 22 ng/mL and the EC50 was determined as 0.121 µg/mL. In addition, the binding result with JCV VP1 mutant L55F is recorded as “no binding (tested: 2.5 ng/ml to 200 ng/ml)”. Further, the “Neutralization of JCV S269F: EC50 [pM]” value in the test with JCV VP1 mutant S269F [4] turned out to be 733 pM.

B5: 1A7 (antibody, V domains shown)
VH: QVQLVQSGAEVKKPGASVKVSCKASGYTFTFYDINWVRQATGQGLEWMGWMNPNSGNTGYAQNFQGRVTMTRNTSINTAYLELSSLRSEDTAVYYCARKIWVGHTTFDRWGQGTLVTVSS
VL: AIQMTQSPSSLSASVGDRVTITCRASQSISGYLNWYQQKPGKAPNLLIYAASNLQSGVPSRFSGSGSGTDFTLTISSLQREDFAPYYCQQTYNIPFTFGGGTKVEIK
In the case of B5, in test [1], the “Neutralization of wild type JCV, EC50 [pM]” value was 180 pM. In addition, in test [2], the “AB conc. (lowest concentration of antibody that gave a clear signal above background)” value was under 22 ng/mL and the concentration giving a half-maximal response (EC50) was determined as 0.0247 µg/mL. In addition, in the test with JCV VP1 mutant S269F [3], the “AB conc. (lowest concentration of antibody that gave a clear signal above background)” value was under 2.5 ng/mL and the EC50 turned out to be 0.0074 µg/mL. The binding result with JCV VP1 mutant L55F is given as “no binding (tested: 2.5 ng/ml to 200 ng/ml)”. The “Neutralization of JCV S269F: EC50 [pM]” value with JCV VP1 mutant S269F [4] is 7 pM.
